Tests used:
rat LIV-1 (rat) = target: T1, rat LIV-1 (rat) (UniProt Q4V887); assay: FACS, HEK293/Rat_LIV-1 cells
T1 sequence (looked up): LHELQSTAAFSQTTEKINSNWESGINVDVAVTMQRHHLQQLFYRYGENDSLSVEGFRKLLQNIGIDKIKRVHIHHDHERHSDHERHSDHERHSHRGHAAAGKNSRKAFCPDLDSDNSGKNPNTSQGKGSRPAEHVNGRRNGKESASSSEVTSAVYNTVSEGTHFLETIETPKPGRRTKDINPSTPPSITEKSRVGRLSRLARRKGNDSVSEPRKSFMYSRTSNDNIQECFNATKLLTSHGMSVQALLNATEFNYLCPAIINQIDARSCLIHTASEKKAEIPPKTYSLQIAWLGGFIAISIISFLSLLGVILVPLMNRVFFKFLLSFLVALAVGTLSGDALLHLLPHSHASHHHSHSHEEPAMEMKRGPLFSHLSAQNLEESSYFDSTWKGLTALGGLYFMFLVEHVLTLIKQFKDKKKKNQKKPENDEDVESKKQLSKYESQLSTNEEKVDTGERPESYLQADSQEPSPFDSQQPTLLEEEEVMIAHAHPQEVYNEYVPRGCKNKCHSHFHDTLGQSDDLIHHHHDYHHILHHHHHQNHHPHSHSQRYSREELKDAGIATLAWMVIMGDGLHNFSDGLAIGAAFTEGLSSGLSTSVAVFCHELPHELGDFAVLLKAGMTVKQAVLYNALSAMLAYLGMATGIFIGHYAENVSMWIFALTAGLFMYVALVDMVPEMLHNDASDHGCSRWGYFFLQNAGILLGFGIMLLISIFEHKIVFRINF

mouse LIV-1 (mouse) = target: T2, mouse LIV-1 (mouse) (UniProt Q8C145); assay: FACS, HEK293/Mouse_LIV-1 cells
T2 sequence (looked up): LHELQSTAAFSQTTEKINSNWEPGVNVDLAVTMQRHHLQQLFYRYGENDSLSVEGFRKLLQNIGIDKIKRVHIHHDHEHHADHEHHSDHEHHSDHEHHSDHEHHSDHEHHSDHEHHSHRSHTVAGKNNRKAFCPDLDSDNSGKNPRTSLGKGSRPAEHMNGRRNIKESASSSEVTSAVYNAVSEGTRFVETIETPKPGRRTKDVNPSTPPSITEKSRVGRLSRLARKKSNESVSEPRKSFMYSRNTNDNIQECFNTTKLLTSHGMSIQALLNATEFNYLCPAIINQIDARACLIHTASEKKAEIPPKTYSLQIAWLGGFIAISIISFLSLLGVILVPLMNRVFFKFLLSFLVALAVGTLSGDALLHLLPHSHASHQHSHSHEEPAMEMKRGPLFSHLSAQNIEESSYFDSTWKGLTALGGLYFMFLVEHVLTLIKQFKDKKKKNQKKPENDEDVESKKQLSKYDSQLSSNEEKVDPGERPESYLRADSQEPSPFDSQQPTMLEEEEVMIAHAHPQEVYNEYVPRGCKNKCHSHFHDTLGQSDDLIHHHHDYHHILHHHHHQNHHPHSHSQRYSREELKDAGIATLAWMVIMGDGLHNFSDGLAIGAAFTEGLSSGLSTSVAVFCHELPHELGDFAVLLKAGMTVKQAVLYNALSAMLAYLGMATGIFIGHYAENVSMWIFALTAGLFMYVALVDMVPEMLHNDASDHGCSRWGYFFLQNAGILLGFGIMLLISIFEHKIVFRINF

- Top (MFI) (rat LIV-1 (rat)): 150 MFI
- Top (MFI) (mouse LIV-1 (mouse)): 121 MFI
B1: 5D6B10 (antibody, V domains shown)
VH: QVQLKQSGPGLVQPSQSLSITCTVSGFSLTTYGIHWVRQSPGKGLEWLGVIWTGGTTDYNAAFISRLSISKDNSKSQVFFKMNSLQANDTAIYYCARGPSSYWGQGTLVTVSA
VL: DIVMTQSQKFMSTSVGDRVSVTCKASQNVDTNVVWYQQKPGQSPKALIHSASYRYSGVPDRFTGSGSGTDFTLTISNVQSEDLAEYFCQQYNNYPWTFGGGTKLEIK
